Reference: patent US20170129940A1 (INSTITUTE FOR RESEARCH IN BIOMEDICINE, published 2017)

B1: 2C12 (antibody, V domains shown)
VH: QITLRESGPTLVKPTQTLTLTCTFSGFSLNTNGVGVGWIRQPPGKALEWLALIYWNGNEGYSPSLKSRLTITKDTSKNQVVLTMTNMDPVDTATYYCVHWPQGLTTVTRLAFDIWGQGTMVTVSS
VL: QSALTQPRSVSGSPGQSVTISCTGTTSDVGRYNFVSWYQQHPGKAPKLLMYDVSQRPSGVPSRFSGSKSGNTASLTISGLQAEDEAVFYCCSYAGGNFFSYVFGTGTKVTVL
B2: 8J16 (antibody, V domains shown)
VH: QVQLQESGPGLVKPSETLSLTCSVSGGFTSSYYWSWIRQAPGKGLEWIGYVYYGESTDYNPSLKSRATISIDTSKNQFSLKLSSVTAADTAVYYCAREVDKRGFDYWGQGALVTVSS
VL: EIVLTQSPGTLSLSPGERATLSCRASQSVSGGYLAWYQQEPGQAPRLVIYGASSRATGIPDRFSASGSGTDFTLTITRLEPEDFAVYYCQQYGRTPLTFGGGTKVEIK
B3: 9I6 (antibody, V domains shown)
VH: EVQLVQSGAEVKKPGESLKISCRESGDTFPAYWIAWVRQMPGKGLEWMGIIYPIDSETTYSPSFQGQVTISADKSINTAYLQWSSLKASDSAIYYCARGTSTGLREAFHIWGQGTMVTVSS
VL: DVVMTQSPLSLAVTLGQPAYISCRSSQSLGYSDGNTYLNWFQQRPGQSPRRLIYEVSNRDSGVPDRFSGSGSGTDFTLKISRVEAEDVGTYYCMQGTHWPPMCSFGQGTKLEIK
B4: 8C15 (antibody, V domains shown)
VH: QVQLQESGPGLVKPSETLSLTCTVSGGSIRSYYWSWIRQPPGKGLEWIGHIYYSGNTNYSPSLQSRVTISLDTPKNQFSLRLSSVTAADTAVYYCARHDVIVVRGVFDVWGQGTVVTVSS
VL: QSALTQPASVSGSPGQSITISCTGTSSDIGTYNLVSWYQQHPGKAPKVLIYDGSKRPSGVSSRFSASKSGNTASLTISGLQAEDETDYYCCSYAGTSDFFVVFGGGTKLTVL
B5: 7I13 (antibody, V domains shown)
VH: QVQLVESGGGVVQPGRSLRLSCAASGFTFSNYGMHWVRQGPGKGLEWVAVISYDASSKYYTDSVQGRFTISRDNSKNTLFLQMNSLRGEDTAVYYCAKALRYLDWFLSDPFDYWGQGTLVTVSS
VL: EIVLTQSPGTLSLSPGERATLSCRASQSVSSDFLAWYQQKPGQAPRLLIYGASSRATGIPDRFSGSGSGTDFTLTISRLEPEDFAVYYCQQYAASPPFGQGTRLEIK
B6: 7B13 (antibody, V domains shown)
VH: QVQLVESGGGVVQPGGSLRLSCAASGFSFSNYGMHWVRQAPGKGLEWVALIPSDGNYQYYTDSVKGRFTVSRDNSRNTLYLQMKSLRAEDTARYHCAHLGGGLFDFWGQGTLVTVSS
VL: QSALNQPRSVSGSPGQSVSISCTGSSSDVGGYEFVSWYQHHPGKAPKLIIYDVDKRPSGVPDRFSGSRSGDTASLTISGLQAEDEADYYCYSSADTWVFGGGTKLTVL

Each binder was assayed against T1, hCMV UL128 + UL130 + UL131A (co-expressed in HEK293T cells) (human cytomegalovirus, UniProt P16837 28-171; P16772 1-214; F5HET4 19-129) (assay: cell-based or functional assay).
T1 sequence (P16837 28-171 limits assumed, one chain of several): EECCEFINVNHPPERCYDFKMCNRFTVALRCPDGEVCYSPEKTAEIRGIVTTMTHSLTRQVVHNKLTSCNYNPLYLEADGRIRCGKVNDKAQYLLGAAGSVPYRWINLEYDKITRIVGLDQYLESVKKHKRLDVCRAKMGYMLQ

**Q.** What does the source list for B1?
**A.** 90% Neutralization ARPE: 0.006 µg/mL; 90% Neutralization MRC-9: > 10 µg/mL

**Q.** Which results are given for B2?
**A.** 90% Neutralization ARPE: 0.0008 µg/mL; 90% Neutralization MRC-9: > 10 µg/mL

**Q.** For B3, which “90% Neutralization ARPE” value is on record?
**A.** 0.0007 µg/mL

**Q.** What about the “90% Neutralization MRC-9” value of the same binder?
**A.** > 10 µg/mL

**Q.** With B4 as the binder, how does the “90% Neutralization ARPE” value read?
**A.** 0.0025 µg/mL

**Q.** And the “90% Neutralization MRC-9” value?
**A.** > 10 µg/mL

**Q.** For B5, which “90% Neutralization ARPE” value is on record?
**A.** 0.008 µg/mL

**Q.** And the “90% Neutralization MRC-9” value?
**A.** > 10 µg/mL

**Q.** How did the “90% Neutralization ARPE” value turn out when B6 was run?
**A.** 0.003 µg/mL

**Q.** What about the “90% Neutralization MRC-9” value of the same binder?
**A.** > 10 µg/mL

Molecular target: T1, hCMV UL128 + UL130 + UL131A …
Assay: cell-based or functional assay
Remark: another data set of the same source

**Q.** B1 was tested. Which “50% Neutralization ARPE” value did it give?
**A.** < 0.01 µg/mL

**Q.** And the “50% Neutralization MRC-9” value?
**A.** ≤ 2 µg/mL

**Q.** Which “50% Neutralization ARPE” value does the source give for B2 here?
**A.** < 0.001 µg/mL

**Q.** What about the “50% Neutralization MRC-9” value of the same binder?
**A.** > 2 µg/mL

**Q.** Which “50% Neutralization ARPE” value does the source give for B3 here?
**A.** < 0.001 µg/mL

**Q.** What about the “50% Neutralization MRC-9” value of the same binder?
**A.** > 2 µg/mL

**Q.** B4 was tested. Which “50% Neutralization ARPE” value did it give?
**A.** < 0.001 µg/mL

**Q.** What about the “50% Neutralization MRC-9” value of the same binder?
**A.** > 2 µg/mL

**Q.** How did the “50% Neutralization ARPE” value turn out when B5 was run?
**A.** < 0.01 µg/mL

**Q.** And the “50% Neutralization MRC-9” value?
**A.** > 2 µg/mL

**Q.** Which results are given for B6?
**A.** 50% Neutralization ARPE: < 0.001 µg/mL; 50% Neutralization MRC-9: > 2 µg/mL
